Measured values reported in patent US20240052052A1 (ANTENGENE BIOLOGICS, published 2024).

T1: human CD24 (human, UniProt P25063 27-59, heavily glycosylated, GPI-anchored (as described in the background))
T1 construct: whole, on cells; Target of all cell-based FACS assays; also called hCD24; Cluster of differentiation 24
T1 chain (looked up): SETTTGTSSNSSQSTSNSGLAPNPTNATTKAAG


What was measured:
[1] = target: T1, human CD24; assay: FACS, 5637 cells
Method: (§1) Sequences of some of antibodies from Table 1 were selected to generate and produce human IgG4 chimeric antibodies. […] The protocol for FACs analysis is described as follows: [0536] a. Digested cells using TrypLE™ Express Enzyme (IX); Centrifuged the harvested cells at 400 g for 5 min and discarding the supernatant. [0537] b. Washed the cells 2 times with cold FACS buffer by centrifuging at 400 g for 5 min and discarding the supernatant. [0538] c. […] Incubate at […] for 1 h. [0539] d. Washed the cells twice by using the condition in step b. Resuspended the cells with 100 μl/well diluted 2nd antibody, incubated at 4 degree for 1 h in the dark. [0540] e. Washed the cells twice by using the condition in step b. Resuspended the cells with 100 μl/well cold FACS buffer. Kept the cells in dark for FACS analysis.

[2] = target: T1, human CD24; assay: FACS, H1975 cells
Method: (§2) Screening & Expansion: The subcloning plates were screened by Acumen assay and the subclones with good binding ability were expanded to 24-wells for confirmation tests. The specificity and cross-reactivity of these subclones were confirmed with FACs analysis. […] Fluorescent dye-conjugated secondary antibody was used to detect the binding of the primary antibody with the cells. Median fluorescence intensity (MFI) was measured by FACs analysis.

[3] = target: T1, human CD24; assay: FACS, 293F-hCD24 cells
Method: as §1

[4] = target: T1, human CD24; assay: FACS, 5637 cells
Method: as §2

[5] = target: T1, human CD24; assay: FACS, HT-29 cells
Method: as §1

[6] = target: T1, human CD24; assay: FACS, A549 cells
Method: as §1

[7] = target: T1, human CD24; assay: FACS, H1975 cells
Method: as §1

[8] = target: T1, human CD24; assay: FACS, Nalm1 cells
Method: as §2

[9] = target: T1, human CD24; assay: FACS, MCF7 cells
Method: as §2

[10] = target: T1, human CD24; assay: FACS, MCF7 cells
Method: as §1

[11] = target: T1, human CD24; assay: FACS, CHOK1-hCD24 cells
Method: as §1

[12] = target: T1, human CD24; assay: FACS, 293F-hCD24 cells
Method: as §2

[13] = target: T1, human CD24; assay: FACS, MDA-MB-468 cells
Method: as §1

[14] = target: T1, human CD24; assay: FACS, Nalm1 cells
Method: as §1

[15] = target: T1, human CD24; assay: flow cytometry, HT-29 and Nalm6 cells
Method: Briefly, HT-29 or Nalm6 cells were washed three times using PBS and firstly incubated with humanized variants. After three times washing, secondary antibody was incubated with cells. MFI of the samples was analyzed with Flow Cytometry and cells-based affinity was calculated.

Binder | EC50 [1] [nM] | FACS MFI [2] | EC50 [3] [nM] | Max MFI [3] | FACS MFI [4] | EC50 [5] [nM] | Max MFI [5] | EC50 [6] [nM] | Max MFI [6] | EC50 [7] [nM] | FACS MFI [8] | FACS MFI [9] | EC50 [10] [nM] | EC50 [11] [nM] | Max MFI [11] | FACS MFI [12] | EC50 [13] [nM] | FACS MFI [13] | EC50 [14] [nM] | Max MFI [14] | also measured
110D4G4 (antibody, V domains shown, mouse monoclonal antibody; also called mAb-110D4G4) VH: EVQLQQSGPGLVKPGASVKISCRASGYLFTGYYMNWVKQSPEKSLEWIGEINPNTGDPRYDQKFKAKATLTVDRSSSTAYMHLKSLTSEDSAVYFCARRDYGTSLDYWGQGTTLTVTS VL: DVQITQSPSYLAASPGETITINCRASKSISKYLAWYQEKPGKTNKLLIYSGSTLQSGIPSRFSGSGSGSDFTLTISSLEPEDFAMYYCQQHNEYPLTFGAGTKLELK | 5.89 | 24900 | 6.55 | 56500 | 47100 | 2.92 | 5610 | 2.72 | 18400 | 5.22 | 76200 | 21200 | 5.2 | 1.52 | 28900 | 56500 | 12.2 | 52800 | 3.27 | 76200 | 
81A1F8-VH-11/VL-21 (antibody, V domains shown, humanized antibody based on 81A1F8; also called 81A1F8-1121) VH: QVQLVQSGAEVKKPGASVKVSCKASGYLFTGYYMNWVRQAPGQGLEWMGEINPNTGDTNNNQKFKARVTMTVDRSISTAYMELSRLRSDDTAVYYCVRRDYGTSLDYWGQGTLVTVSS VL: DVQITQSPSFLSASVGDRVTITCRASKSINKYLAWYQQKPGKAPKLLIHSGSTLQSGVPSRFSGSRSGTEFTLTISSLQPEDFATYYCQQHNEYPITFGQGTKLEIK |  |  |  |  |  |  |  |  |  |  |  |  |  |  |  |  |  |  |  |  | binding result [15]: binds
81A1F8-VH-21/VL-21 (antibody, V domains shown, humanized antibody based on 81A1F8; also called 81A1F8-2121) VH: QVQLVQSGAEVKKPGASVKVSCKASGYLFTGYYMNWVRQAPGQGLEWMGEINPNTGDTNNNQKFKARVTMTVDRSTSTAYMELSSLRSEDTAVYYCVRRDYGTSLDYWGQGTLVTVSS VL: DVQITQSPSFLSASVGDRVTITCRASKSINKYLAWYQQKPGKAPKLLIHSGSTLQSGVPSRFSGSRSGTEFTLTISSLQPEDFATYYCQQHNEYPITFGQGTKLEIK |  |  |  |  |  |  |  |  |  |  |  |  |  |  |  |  |  |  |  |  | binding result [15]: binds
81A1F8-VH-11/VL-41 (antibody, V domains shown, humanized antibody based on 81A1F8) VH: QVQLVQSGAEVKKPGASVKVSCKASGYLFTGYYMNWVRQAPGQGLEWMGEINPNTGDTNNNQKFKARVTMTVDRSISTAYMELSRLRSDDTAVYYCVRRDYGTSLDYWGQGTLVTVSS VL: DVQITQSPSTLSASVGDRVTITCRASKSINKYLAWYQQKPGKAPKLLIHSGSTLQSGVPSRFSGSRSGTEFTLTISSLQPDDFATYYCQQHNEYPITFGQGTKLEIK |  |  |  |  |  |  |  |  |  |  |  |  |  |  |  |  |  |  |  |  | binding result [15]: binds
56A7E3 (antibody, V domains shown, mouse monoclonal antibody) VH: EVQLQQSGPELVKPGASVKIPCKASGYTFTAYNMDWVKQSHGMSLEWIGDINPINGGTIYNQNFEGKATLTVDKSSSTAYLELRSLTSEDTAVYYCARRGSYYYGSSHYALDFWGQGTSVSVSS VL: DIQMTQITSSLSASLGDRVTITCRASQDISNYLNWYQQKPDGTVKLLIYYTSRLLSGVPSRFSGSGSGTDYSLTISNLEQEDIATYFCQQDHTLPRTFGGGTKLEIR | 31.6 | 2190 | 7.52 | 26400 | 18500 | 18.1 | 1460 | 92.4 | 3320 | 93.1 | 74600 | 9190 | 81.7 | 4.85 | 36700 | 26400 | 16.7 | 15300 | 20.9 | 74600 | 

The next lines start with results.

EC50 [1] [nM] | FACS MFI [2] | EC50 [3] [nM] | Max MFI [3] | FACS MFI [4] | EC50 [5] [nM] | Max MFI [5] | EC50 [6] [nM] | Max MFI [6] | EC50 [7] [nM] | FACS MFI [8] | FACS MFI [9] | EC50 [10] [nM] | EC50 [11] [nM] | Max MFI [11] | FACS MFI [12] | EC50 [13] [nM] | FACS MFI [13] | EC50 [14] [nM] | Max MFI [14] | Binder | also measured
3.31 | 10600 | 1.7 | 10300 | 22200 | 2.93 | 3050 | 2.37 | 8660 | 2.03 | 24800 | 11500 | 3 | 1.52 | 45900 | 10300 | 5.23 | 24900 | 1.9 | 24800 | 81A1F8 (antibody, V domains shown, mouse monoclonal antibody) VH: EVQLQQSGPELVKPGASVKISCKATGYLFTGYYMNWVKQSPEKSLEWIGEINPNTGDTNNNQKFKAKATMTVDRSSSTAYMQLKRLTSEDSAVYYCVRRDYGTSLDYWGQGTTLTVSS VL: DVQITQSPSYLAASPGETITINCRASKSINKYLAWYQEKPGKTNKLLIHSGSTLQSGIPSRFSGSRSGTDFTLTISNLEPEDFAMYYCQQHNEYPITFGAGTKLELK | 
24.6 | 2200 | 16.2 | 20100 | 6360 | 40 | 4820 | 36 | 5700 | 31.3 | 58500 | 373 | 45.9 | 23.8 | 19900 | 20100 | 28 | 6400 | 33.8 | 58500 | 73H5-1G2 (antibody, V domains shown, mouse monoclonal antibody) VH: QVQLKQSGPGLVQPSQSLSITCTVSGFSLTNYGVHWIRQSPGKGLEWLGVIWRGGSTDYNAAFMSRLSITKDNSKSQVFFQMNSLQAADTAIYYCANNYGYDCFAYWGQGTLVTVSA VL: DVQITQSPSYLAASPGETITINCRASKSIIKYLAWYQEKPGKTNKLLIYSGSTLQSGIPSRFSGSGSGTDFTLTITSLEPEDFAMYYCQQHNEYPLTFGAGTRLELK | Max MFI [1]: 7440
22.4 | 17500 | 24.1 | 58200 | 34200 | 10.8 | 4900 | 12.6 | 12600 | 53.1 | 20900 | 17400 | 43.4 | 9.7 | 28100 | 7420 | 38.9 | 49800 | 8.72 | 60300 | 58F10-1F6 (antibody, V domains shown, mouse monoclonal antibody) VH: EVQLRQSGPELVKPGAAVKISCKASGYSFTGYHMNWVKQSPEKSLEWIGEINPITSGITYNQIFKAKATLTVDKSSSTAYLQLKSLTSEDSAVYYCTRRDYGTSLDYWGQGTTLTVSS VL: DIQMTQITSSLSASLGDRVTITCRASQDISNYLNWYQQKPDGTVKLLIYYTSRLLSGVPSRFSGSGSGTDYSLTISNLEQEDIATYFCQQDHTLPRTFGGGTKLEIR | 
39.7 | 7200 | 6.74 | 39400 | 18600 | 5.46 | 4780 | 1.97 | 4410 | 71.9 | 45000 | 2420 | 121 | 1.72 | 28800 | 7350 | 11.7 | 32500 | 6.28 | 45000 | 71A4F12 (antibody, V domains shown, mouse monoclonal antibody) VH: EVQLQQSGPELVKPGASVKIPCKASGYTFTAYNMDWVKQSHGMSLEWIGDINPNNGDTVYNQNFKGKATLTVDKSSSTAYMELRSLTSEDTAVYYCARRGSYYYGSSHYALDFWGQGTSVSVSS VL: DIQMTQITSSLSASLGNRVTISCRASQDIRNYLNWYQQKPDGTVKLLIYYTSRLLSGVPSRFSGSGSGTDYSLTISNLEQEDIATYFCQQDNSLPRTFGGGTRLEIR | Max MFI [10]: 12600
